We go through 31 sequences from the supplement of paper PMC9170038.

The data set relates to MS2 coat protein. The data set can be described thus: apparent KD of MS2 coat protein; designed switch direction (-1 OFF switch, 1 ON switch): -1; higher = weaker reporter binding. In short, it runs like this: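 On Illumina chips, designed RNA switches with common flanks were made by stalled E. coli RNA polymerase. Titrations with SNAP-549-labelled MS2 coat protein, doubling from 0.7 or 1.5 nM to 3 µM, were done with no input, with 200 uM small-molecule ligand, or with an oligonucleotide input. Apparent KD is the median per design over clusters, from curve fits of normalised cluster fluorescence.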

Where [1] appears, read: Eterna round: R95, input ligand: microRNA oligo, concentration not stated.
Setting [2] is: input ligand: microRNA oligo, concentration not stated.
The mark [3] stands for this setting: Eterna round: R95, input ligand: FMN 200 uM.
Where [4] appears, read: Eterna round: R95, input ligand: none.

For the sequence “GGAGCAAAUGUCAGGAUAUCGUGGUCGAUAGAUCACGAGAAGGGACAUGAGGAUCACCCAUGUCAGUCCGCUCC [Mat - Exclusion 4 - Eli Mod - D58] (Eterna round: R97, puzzle: Brourd's mod of Exclusion 4)”, the “apparent KD of MS2 coat protein” value is 22 nM (input ligand: FMN 200 uM) and 14.3 nM (input ligand: none).
In the case of “GGAGCGGAAGGAUAUGCUGCGGGAUUGCAUGGAAAGAAAAUACAUGAGGAUCACCCAUGUAGAAGGUCCGUGAA [Uslequ] (puzzle: Exclusion 2)”, the “apparent KD of MS2 coat protein” value under setting [1] was determined as 24.8 nM.
For the sequence “GGAGGAAAGAUAGGAUAUUCGAGGAAGGUGGUGAUAGAGACAUGAGGAUCACCCAUGUAAGGAGGGAAGAAGGGUCGAGGAGGA [AK ExNG2-V2-7] (Eterna round: R96, puzzle: Exclusion NG 2)”, the “apparent KD of MS2 coat protein” value runs as follows: (input ligand: FMN 200 uM) 411 nM; under setting [2], 193 nM; (input ligand: none) 142 nM.
Consider “GGAGGAACCGGAGGAUAUUGAUUUAAGCGGUUACGCAAGACAUGAGGAUCACCCAUGUGUCCGGACGAGAAGGCCGAAGAAGAA [ExNG2 3rd] (Eterna round: R96, puzzle: Exclusion NG 2)”, for which the “apparent KD of MS2 coat protein” value by setting is: (input ligand: FMN 200 uM) 43.7 nM; under setting [2], 30.6 nM; (input ligand: none) 38.9 nM.
The corresponding values for “GGAGGACGAGCAGGAUAUUUUCACAUGAGGAUCACCCAUGUGUACUCAGGGUAAUCCUCCGCCGAAGAGAAGGGUUCGGAAGAA [Socedi] (Eterna round: R96, puzzle: Exclusion NG 2)” are 91 nM, 23 nM and 57.1 nM.
For the sequence “GGAGGACGAGCAGGAUAUUUUCACAUGAGGAUCACCCAUGUGUAUUCAGGGUAAUCCUCCGCCGAAAAGAAGGGUUCGGAAGAA [JL ViennaUCT Socedi mod 2] (Eterna round: R96, puzzle: Exclusion NG 2)”, the “apparent KD of MS2 coat protein” value by setting is: (input ligand: FMN 200 uM) 62.9 nM; under setting [2], 39 nM; (input ligand: none) 47.2 nM.
Consider “GGAGGGCUAGGAUAUGUAACAGGGAACUUGAGGAUCACCCAAGUGGCCGAAGGCACCCUGGCAGAAGGAGUAAAGA [Inmaislari] (Eterna round: R97, puzzle: Exclusion 5)”, for which the “apparent KD of MS2 coat protein” value is, setting by setting: (input ligand: FMN 200 uM) 71.6 nM; (input ligand: none) 50.8 nM.
With “GGAGUCUUAGGAUAUACAGGUGUGAACAUCCGACGUUUCCAACAUGAGGAUCACCCAUGUAGAAGGAAGACGAG [Eternabot (Original) Solution 5] (Eterna round: R97, puzzle: Exclusion 2)”, the “apparent KD of MS2 coat protein” value is 824 nM (input ligand: FMN 200 uM) and 783 nM (input ligand: none).
Consider “GGAGUGUGAGGAUAUAUGGUGAAGGUGAAGAGAGAGGAGGAGUAGAAGGUACAUGAGGAUCACCCAUGUUUAGG [JR_Exclu4_Sub072] (puzzle: Exclusion 4)”, for which, under setting [1], the “apparent KD of MS2 coat protein” value was found to be 38.5 nM.
For “GGAUAAAACUGAGGAUAUGCGGAGAGAGAGAGAGCAGAAGGCAGACAUGAGGAUCACCCAUGUGAGUUCUCGAUAAGAAACACG [Prohibition 57 - Jieux - Exclusion NG 1] (Eterna round: R96, puzzle: Exclusion NG 1)”, the “apparent KD of MS2 coat protein” value is, setting by setting: (input ligand: FMN 200 uM) 107 nM; under setting [2], 24 nM; (input ligand: none) 31.8 nM.
The corresponding values for “GGAUAUAGGCGAGGAUAUACGCACCACUAACGAGUAGAAGGCGCACAUGAGGAUCACCCAUGUGAGUUCUCAAUAUGAUACACG [Prohibition 70 - Jieux - Exclusion NG 1] (Eterna round: R96, puzzle: Exclusion NG 1)” are 14.9 nM, 14.1 nM and 18.6 nM.
Regarding “GGAUCACAUGUCAGGAUAUCCGGGCAGAGUGGCCAGGAGAAGGGACAUGAGGAUCACCCAUGUUGCUUAAAAUU [Bierorerqu] (puzzle: Brourd's mod of Exclusion 4)”, the “apparent KD of MS2 coat protein” value is, setting by setting: under setting [3], 34.8 nM; under setting [1], 69.9 nM; under setting [4], 157 nM.
As to “GGAUCGAAAGUGAGGAUAUGCUGGUCCUUGGAUCAGCAGAAGGCACAUGAGGAUCACCCAUGUGGGAACGGUCC [Eli bmx4 4.46] (Eterna round: R97, puzzle: Brourd's mod of Exclusion 4)”, the “apparent KD of MS2 coat protein” value runs as follows: (input ligand: FMN 200 uM) 1440 nM; (input ligand: none) 298 nM.
The corresponding values for “GGAUCGAGUGUGAGGAUAUGCUGGUCCUUGGAUCAGCAGAAGGCACAUGAGGAUCACCCAUGUGACUAAGAUCC [Eli bmx4 4.75] (Eterna round: R97, puzzle: Brourd's mod of Exclusion 4)” are 322 nM and 29.8 nM.
For “GGAUCUAAGGUGAGGAUAUAGACUCCCAAAUGGAUCUAGAAGGCACUUGAGGAUCACCCAAGUAGUCUAGGGAA [Orered] (Eterna round: R97, puzzle: Brourd's mod of Exclusion 4)” the same measures were 33.6 nM and 16.9 nM.
For “GGAUCUUGGGUCAGGAUAUGCUGACAGCCAUGUCAGCAGAAGGGACAUGAGGAUCACCCAUGUGCUCGGUUUUG [Magic-19] (puzzle: Brourd's mod of Exclusion 4)”, under setting [1], the “apparent KD of MS2 coat protein” value amounted to 10.1 nM.
Same read-out and setting: the result for “GGAUCUUGGGUCAGGAUAUGCUGAUAGUUAUGUCAGCAGAAGGGACAUGAGGAUCACCCAUGUGCUCGGUUUUG [Magic-18] (puzzle: Brourd's mod of Exclusion 4)” reads 11.3 nM.
As for “GGAUUACGAGGAUAUCGAUUUUAGUACAUGAGGAUCACCCAUGUUGUCCAGGUCUCGUUUCGAGAAGGCGUGAUUC [LRO-Ex5-06] (puzzle: Exclusion 5)”, the “apparent KD of MS2 coat protein” value under setting [1] came out at 58.4 nM.
For the sequence “GGAUUCCAGUGAGGAUAUCCAAAUAAAAGCCAUGGAGAAGGCACAUGAGGAUCACCCAUGUAGGGCAAUAACAGCGAACGCUGC [Erenlege] (Eterna round: R96, puzzle: Exclusion NG 1)”, the “apparent KD of MS2 coat protein” value is, setting by setting: (input ligand: FMN 200 uM) 73 nM; under setting [2], 43.3 nM; (input ligand: none) 30.8 nM.
For the sequence “GGCAAACAUGAGGAUCACCCAUGUAAGGAUAUUAGGCGAUCGUCGAAAGACGAUAGCCUGAGAAGGUGCAUGCC [Eli x1 4.15] (Eterna round: R97, puzzle: Exclusion 1)”, the “apparent KD of MS2 coat protein” value reads like this: (input ligand: FMN 200 uM) 38.8 nM; (input ligand: none) 22.4 nM.
Consider “GGCAAUAUGUAGGAUAUCGUAUCGGAAACGAUACGAGAAGGGCAAACAUGAGGAUCACCCAUGUUCCUUAAGCC [Fiskers Ex 6 - 10] (puzzle: Exclusion 6)”, for which, under setting [1], the “apparent KD of MS2 coat protein” value was 13.5 nM.
Still for that read-out and setting: with “GGCAUAAACGAGGAUAUCGAUACGGAAACGUAUCGAGAAGGUGUAACAUGAGGAUCACCCAUGUUCCUCAAGCC [Mat - Exclusion 6 - Eli Mod - D60] (puzzle: Exclusion 6)” the figure was 29.1 nM.
For “GGCAUAAACGAGGAUAUCGUUACGGAAACGUAACGAGAAGGUGUAACAUGAGGAUCACCCAUGUUCCUCAAGCC [Mat - Exclusion 6 - Eli Mod - D59] (Eterna round: R96, puzzle: Exclusion 6)”, the “apparent KD of MS2 coat protein” value reads like this: (input ligand: FMN 200 uM) 36.8 nM; under setting [2], 29.8 nM; (input ligand: none) 38 nM.
As to “GGCAUAAACGAGGAUAUCGUUACGGAAACGUAACGAGAAGGUGUAACAUGAGGAUCACCCAUGUUCCUCAAGCC [Mat - Exclusion 6 - Eli Mod - D59] (puzzle: Exclusion 6)”, the “apparent KD of MS2 coat protein” value under setting [1] is 28.9 nM.
On to “GGCAUCGGAGGAUAUAUUUAUGGUGAUACCGGAAGCUUUCUACUUGAGGAUCACCCAAGUAGAAGGCCGAUGCC [jl-ex2.4.85 ViennaUCT mod] (Eterna round: R97, puzzle: Exclusion 2)”, for which the “apparent KD of MS2 coat protein” value runs as follows: (input ligand: FMN 200 uM) 39.5 nM; (input ligand: none) 13.7 nM.
The corresponding values for “GGCAUGUGAGGAUAUGCGAAGGGAAGGAGAGGGAAAGAGAAGCAGAAGGCACAUGAGGAUCACCCAUGUAAGGG [AK-MS2ROC-r4-exclusion4-8] (Eterna round: R97, puzzle: Exclusion 4)” are 34.1 nM and 203 nM.
In the case of “GGCCCUAAGGUCAGAUCCACAAGCUUUUUGCUCGUUUUAACAUGAGGAUCACCCAUGUCUAGUGGAUUUGAUCCUCA [Sensor v3, turn-off variant 2 (MOD of Indiso v.5)] (puzzle: Sensor v3, turn-off variant 2)”, the “apparent KD of MS2 coat protein” value stood at 36.2 nM under setting [3], 14.5 nM under setting [1] and 41.3 nM under setting [4].
The corresponding values for “GGCCCUAAGGUCAGAUUCACAAGCUUUUUGCUCGUUUUAACAUGAGGAUCACCCAUGUCUAGUGGAUCUGAUCCUCA [Sensor v3, turn-off variant 2 (MOD of Indiso v.2)] (puzzle: Sensor v3, turn-off variant 2)” are 21.6 nM, 11.8 nM and 20.1 nM.
Regarding “GGCCCUAGGGUCAGACGCACAAGCUUUUUGCUCGUUUUAACAUGAGGAUCACCCAUGUCUAGUGGAUCUGAUCGGGU [Mausinonra] (Eterna round: R96, puzzle: Sensor v3, turn-off variant 2)”, the “apparent KD of MS2 coat protein” value stood at 19.6 nM (input ligand: FMN 200 uM), 96.8 nM under setting [2] and 25.8 nM (input ligand: none).
On to “GGCCCUAGGGUCAGACGCACAAGCUUUUUGCUCGUUUUAACAUGAGGAUCACCCAUGUCUAGUGGAUCUGAUCGGGU [Mausinonra] (puzzle: Sensor v3, turn-off variant 2)”, for which the “apparent KD of MS2 coat protein” value runs as follows: under setting [3], 20.6 nM; under setting [1], 111 nM; under setting [4], 18.5 nM.
Take “GGCCGAGAACAGCUCCGCGCUGCCCUCAGCCGCUCAUUUACAUGAGGAUCACCCAUGUUUUUUGCUUGUCUUGUUUC [Antibe] (puzzle: Sensor v3, turn-off variant 2)”: the “apparent KD of MS2 coat protein” value stood at 20.3 nM under setting [3], 104 nM under setting [1] and 22.3 nM under setting [4].
